Data published in patent publication US20070003923A1 (Scripps Research, published 2007).

B2: wild type Ad5 fiber protein, on Ad5-pseudotyped particles (Ad5.GFP.ΔF/5F) (other)
chain: MKRARPSEDTFNPVYPYDTETGPPTVPFLTPPFVSPNGFQESPPGVLSLRLSEPLVTSNGMLALKMGNGLSLDEAGNLTSQNVTTVSPPLKKTKSNINLEISAPLTVTSEALTVAAAAPLMVAGNTLTMQSQAPLTVHDSKLSIATQGPLTVSEGKLALQTSGPLTTTDSSTLTITASPPLTTATGSLGIDLKEPIYTQNGKLGLKYGAPLHVTDDLNTLTVATGPGVTINNTSLQTKVTGALGFDSQGNMQLNVAGGLRIDSQNRRLILDVSYPFDAQNQLNLRLGQGPLFINSAHNLDINYNKGLYLFTASNNSKKLEVNLSTAKGLMFDATAIAINAGDGLEFGSPNAPNTNPLKTKIGHGLEFDSNKAMVPKLGTGLSFDSTGAITVGNKNNDKLTLWTTPAPSPNCRLNAEKDAKLTLVLTKCGSQILATVSVLAVKGSLAPISGTVQSAHLIIRFDENGVLLNNSFLDPEYWNFRNGDLTEGTAYTNAVGFMPNLSAYPKSHGKTAKSNIVSQVYLNGDKTKPVTLTITLNGTQETGDTTPSAYSMSFSWDWSGHNYINEIFATSSYTFSYIAQE
B3: Coxsackie-Adenovirus Receptor (CAR) on A549 lung carcinoma cells (receptor)
chain: LSITTPEEMIEKAKGETAYLPCKFTLSPEDQGPLDIEWLISPADNQKVDQVIILYSGDKIYDDYYPDLKGRVHFTSNDLKSGDASINVTNLQLSDIGTYQCKVKKAPGVANKKIHLVVLVKPSGARCYVDGSEEIGSDFKIKCEPKEGSLPLQYEWQKLSDSQKMPTSWLAEMTSSVISVKNASSEYSGTYSCTVRNRVGSDQCLLRLNVVPPSNKAGLIAGAIIGTLLALALIGLIIFCCRKKRREEKYEKEVHHDIREDVPPPKSRTSTARSYIGSNHSSLGSMSPSNMEGYSKTQYNQVPSEDFERTPQSPTLPPAKVAAPNLSRMGAIPVMIPAQSKDGSIV
notes: whole, on cells; The assays were run on A549 cells, which were not transfected with CAR

Legend:
[1] = biological target: B3; assay: virus attachment to A549 cells at 4 C, bound genomes by TaqMan PCR; non-specific binding set by excess Ad5 knob
[2] = biological target: B3; assay: cell-based or functional assay
[3] = biological target: T1, Ad5Δs truncated Ad5 fiber (deletion of the 14 central shaft repeats), on pseudotyped Ad5 particles (adenovirus serotype 5 (Ad5), UniProt P11818 1-581); assay: virus attachment to A549 cells at 4 C, bound genomes by TaqMan PCR; non-specific binding set by excess Ad5 knob
T1 construct: also called Ad5As; pLP32
T1 sequence: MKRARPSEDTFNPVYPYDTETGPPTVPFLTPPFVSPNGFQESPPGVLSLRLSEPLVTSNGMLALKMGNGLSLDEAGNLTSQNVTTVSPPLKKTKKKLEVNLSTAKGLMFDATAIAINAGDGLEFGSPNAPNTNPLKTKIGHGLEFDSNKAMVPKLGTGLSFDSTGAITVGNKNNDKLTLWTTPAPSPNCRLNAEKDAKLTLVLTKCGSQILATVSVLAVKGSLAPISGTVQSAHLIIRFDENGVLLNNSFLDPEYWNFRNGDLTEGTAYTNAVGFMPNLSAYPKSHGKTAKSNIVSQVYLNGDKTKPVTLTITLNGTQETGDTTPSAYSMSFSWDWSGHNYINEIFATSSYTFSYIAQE

[4] = biological target: B2; assay: as above

B1: Ad5s/Ad37s chimeric fiber (Ad5 fiber with the 3rd and 21st repeats replaced with the corresponding repeats of Ad37), on pseudotyped Ad5 particles (other)
chain: MKRARPSEDTFNPVYPYDTETGPPTVPFLTPPFVSPNGFQESPPGVLSLRLSEPLVTSNGMLALKMGNGLSLDEAGSLTVNPKAPLQVNTDSNINLEISAPLTVTSEALTVAAAAPLMVAGNTLTMQSQAPLTVHDSKLSIATQGPLTVSEGKLALQTSGPLTTTDSSTLTITASPPLTTATGSLGIDLKEPIYTQNGKLGLKYGAPLHVTDDLNTLTVATGPGVTINNTSLQTKVTGALGFDSQGNMQLNVAGGLRIDSQNRRLILDVSYPFDAQNQLNLRLGQGPLFINSAHNLDINYNKGLYLFTASNNSKKLEVNLSTAKGLMFDATAIAINAGDGLEFGSPNAPNTNPLKTKIGHGLEFDSNIGINVRAREGLTFDNDGAITVGNKNNDKLTLWTTPAPSPNCRLNAEKDAKLTLVLTKCGSQILATVSVLAVKGSLAPISGTVQSAHLIIRFDENGVLLNNSFLDPEYWNFRNGDLTEGTAYTNAVGFMPNLSAYPKSHGKTAKSNIVSQVYLNGDKTKPVTLTITLNGTQETGDTTPSAYSMSFSWDWSGHNYINEIFATSSYTFSYIAQE
notes: also called 'straightened' Ad5 fiber shaft; pLP43
B1: binds [1].

For B2, the “infection of A549 cells by GFP vector particles (FACS)” value [2] was about 8 fold.

B3: binds [3]; binds [4].

B4: Ad37s/Ad5k chimeric fiber (Ad37 shaft fused to the Ad5 knob), on pseudotyped Ad5 particles (other)
chain: MKRARPSEDDFNPVYPYGYARNQNIPFLTPPFVSSDGFKNFPPGVLSLKLADPITITNGDVSLKVGGGLTLQDGSLTVNPKAPLQVNTDKKLELAYDNPFESSANKLSLKVGHGLKVLDEKSAAGLKDLIGKLVVLTGKGIGTENLENTDGSSRGIGINVRAREGLTFDNDGYLVAWNPKYDTRTLWTTPAPSPNCRLNAEKDAKLTLVLTKCGSQILATVSVLAVKGSLAPISGTVQSAHLIIRFDENGVLLNNSFLDPEYWNFRNGDLTEGTAYTNAVGFMPNLSAYPKSHGKTAKSNIVSQVYLNGDKTKPVTLTITLNGTQETGDTTPSAYSMSFSWDWSGHNYINEIFATSSYTFSYIAQE
notes: Built from Ad37 1-184, with the first seven residues changed to those of Ad5, and Ad5 400-581; also called pLP13
B4: binds [1].
